# Experimental data published in patent US9289381B2, “Stabilization and storage of biological pharmaceutical compositions” (The University of North Carolina at Charlotte, priority 2009, dated 2016).
# Where “and” joins values, the source holds several entries; their conditions need not be identical. Identical values can stand only once.
# Tests used:
# [1] = Microcalorimetry (DSC) of HEWL dispersions stored in 80% w/w CDHP or 0.1M NaOAc; assay type: physicochemical; set-up: Thermal transition midpoint temperature of HEWL: unit not given here
# Protocol: The samples were formulated in 2 ml silanized glass vials to reduce protein-surface interactions, covered with cap and septa, wrapped with parafilm to ensure no drying out of the sample, and stored away from sunlight. They were stirred for at least 24 hours until a homogeneous distribution of protein was obtained. […] The 35 silanized vials were exposed to UV light for 24 hours to ensure sterility. Control samples at equivalent concentrations were also prepared in triplicates in 0.1M NaOAc buffer (pH 4). Samples were tested for thermal stability via microcalorimetry and functional activity via the micrococcus lysodeikticus assay at monthly intervals.
# A MicroCal VP-DSC microcalorimeter was used to assess thermal structural stability of all samples. Baseline repeatability was established with a minimum of 5 buffer-buffer scans. […] HEWL solutions were tested similarly with no dilution of the samples. Between samples, during the filling period of 15° C. to 25° C., the sample cell of the DSC was flushed with at least 25 ml distilled H2O, then at least 15 ml NaOAc to ensure no sample residue remained behind. Thermal profiles, enthalpy changes, and transition temperatures were obtained with Origin software.
# All formulations were diluted to 0.1-0.5 mg/ml for testing. This allows one to observe how well protein thermal stability and structural integrity is maintained following storage and then dilution into a solution of similar composition as the environment of the body.
# [2] = Microcalorimetry (DSC) of 1 mg/ml HEWL solutions in 0-40% w/w CDHP or 20% choline chloride in 0.1M NaOAc; assay type: physicochemical
# Protocol: All samples were prepared in triplicate. A MicroCal VP-DSC microcalorimeter was used to assess thermal structural stability of all samples. […] HEWL solutions were tested similarly with no dilution of the samples. Between samples, during the filling period of 15° C. to 25° C., the sample cell of the DSC was flushed with at least 25 ml distilled H2O, then at least 15 ml NaOAc to ensure no sample residue remained behind. Thermal profiles, enthalpy changes, and transition temperatures were obtained with Origin software.
# [3] = system: micrococcus lysodeikticus; assay: Micrococcus lysodeikticus turbidimetric assay of HEWL enzyme activity; assay type: biochemical; details: formulated in NaOAc compared with 80% w/w CDHP, 10 and 100 mg/ml, 5 months
# [4] = Sedimentation analysis of HEWL dispersions (centrifugation, BCA); assay type: physicochemical; details: HEWL dispersion in 80% w/w CDHP, 75 minutes at 15000 RPM
# Protocol: The presence of any CDHP crystals was also noted. […] Images were taken using SlideBook.
# The second approach to verify these sample compositions was to determine the amount of protein in the dispersed phase after separation of the solid and liquid components by centrifugation. To achieve separation of these components, solutions were centrifuged for 75 minutes at 15000 RPM, about 10% remained in the supernatant. Both the decanted supernatant and the pellet, which was re-suspended in buffer, were analyzed for protein content. It was observed that ˜90% of the formulated protein was contained in the pellet. The remaining about 10% of the formulated protein was found in the supernatant. […] Although the supernatants appeared clear it is possible that there are sub-visible particles of lysozyme in the supernatant that resist sedimentation at this rate.
# [5] = 350 mg/ml vs 1 mg/ml, aqueous solvent; cited from earlier work
# [6] = stored at 100 mg/ml in Choline dhp, 3 months
# [7] = stored at 100 mg/ml in Choline dhp, 4 months
# [8] = stored at 100 mg/ml in Choline dhp, 5 months
# [9] = 20% w/w Choline Chloride in 0.1M NaOAc
substance,measurement,setting,value
"HEWL: hen egg white lysozyme (HEWL), a well characterized protein, purchased from Worthington Biochem",Enthalpy of unfolding of HEWL,[1]; [6],55235 cal/mol and 57272 cal/mol and 54900 cal/mol
same,Thermal transition midpoint temperature of HEWL,[1]; [6],346.39 and 346.37
same,Enthalpy of unfolding of HEWL,[1]; [7],45229.5 cal/mol and 45580.5 cal/mol and 49716 cal/mol
same,Thermal transition midpoint temperature of HEWL,[1]; [7],346.3 and 346.35 and 346.37
same,Enthalpy of unfolding of HEWL,[1]; [8],38900 cal/mol and 36400 cal/mol and 39300 cal/mol
same,Thermal transition midpoint temperature of HEWL,[1]; [8],346.29 and 346.02 and 346.35
same,Thermal transition midpoint temperature of HEWL,"[1]; stored at 100 mg/ml in NaOAc, 0 months",346.92 and 346.45 and 347.06
same,Thermal transition midpoint temperature of HEWL,"[1]; stored at 100 mg/ml in NaOAc, 1 month",345.92 and 346.17 and 345.84
same,Thermal transition midpoint temperature of HEWL,"[1]; stored at 100 mg/ml in NaOAc, 2 months",345.78 and 346 and 345.69
same,Thermal transition midpoint temperature of HEWL,"[1]; stored at 100 mg/ml in NaOAc, 3 months",345.79 and 345.9 and 345.66
same,Thermal transition midpoint temperature of HEWL,"[1]; stored at 100 mg/ml in NaOAc, 4 months",345.47 and 345.41 and 345.51
same,Thermal transition midpoint temperature of HEWL,"[1]; stored at 100 mg/ml in NaOAc, 5 months",345.39 and 345.41
same,Gibbs free energy change at 25 C.,[2]; 0% w/w CDHP,15577.94 cal/mol and 14496.3 cal/mol and 15030.24 cal/mol
same,Tm,[2]; 0% w/w CDHP in 0.1M NaOAc,75.18 °C and 75.19 °C and 75.25 °C
same,ΔH,[2]; 0% w/w CDHP in 0.1M NaOAc,104019 cal/mol and 107800 cal/mol and 100216 cal/mol
same,ΔS,[2]; 0% w/w CDHP in 0.1M NaOAc,298.62 cal/mol K and 309.47 cal/mol K and 287.65 cal/mol K
same,Gibbs free energy change at 25 C.,[2]; 5% w/w CDHP,15918.62 cal/mol and 15480.14 cal/mol and 14730.02 cal/mol
same,Tm,[2]; 5% w/w CDHP in 0.1M NaOAc,76.08 °C and 76.07 °C and 75.4 °C
same,ΔH,[2]; 5% w/w CDHP in 0.1M NaOAc,100408 cal/mol and 108540 cal/mol and 106838 cal/mol
same,ΔS,[2]; 5% w/w CDHP in 0.1M NaOAc,287.51 cal/mol K and 310.81 cal/mol K and 306.57 cal/mol K
same,Gibbs free energy change at 25 C.,[2]; 10% w/w CDHP,15052.44 cal/mol and 16934.42 cal/mol and 15295.08 cal/mol
same,Tm,[2]; 10% w/w CDHP in 0.1M NaOAc,76.08 °C and 76.10 °C and 77.09 °C
same,ΔH,[2]; 10% w/w CDHP in 0.1M NaOAc,104260 cal/mol and 102581 cal/mol and 113549 cal/mol
same,ΔS,[2]; 10% w/w CDHP in 0.1M NaOAc,298.54 cal/mol K and 293.72 cal/mol K and 324.21 cal/mol K
same,Gibbs free energy change at 25 C.,[2]; 20% w/w CDHP,18362.96 cal/mol and 17405.26 cal/mol and 17754.96 cal/mol
same,Tm,[2]; 20% w/w CDHP in 0.1M NaOAc,78.82 °C and 78.94 °C and 78.79 °C
same,ΔH,[2]; 20% w/w CDHP in 0.1M NaOAc,115791 cal/mol and 119528 cal/mol and 113549 cal/mol
same,ΔS,[2]; 20% w/w CDHP in 0.1M NaOAc,328.98 cal/mol K and 339.48 cal/mol K and 322.63 cal/mol K
same,Gibbs free energy change at 25 C.,[2]; 20% w/w Choline Chloride,13397.9 cal/mol and 12597.32 cal/mol and 12725.42 cal/mol
same,Tm,[2]; [9],72.47 °C and 72.62 °C and 72.36 °C
same,ΔH,[2]; [9],92354 cal/mol and 96972 cal/mol and 91615 cal/mol
same,ΔS,[2]; [9],267.21 cal/mol K and 280.45 cal/mol K and 265.16 cal/mol K
same,Gibbs free energy change at 25 C.,[2]; 30% tw/w CDHP,20716 cal/mol and 17097.4 cal/mol and 22407.08 cal/mol
same,Tm,[2]; 30% w/w CDHP in 0.1M NaOAc,81.86 °C and 82.00 °C and 81.80 °C
same,ΔH,[2]; 30% w/w CDHP in 0.1M NaOAc,139533 cal/mol and 128741 cal/mol and 106557 cal/mol
same,ΔS,[2]; 30% w/w CDHP in 0.1M NaOAc,393.04 cal/mol K and 362.5 cal/mol K and 300.2 cal/mol K
same,Gibbs free energy change at 25 C.,[2]; 40% w/w CDHP,25634 cal/mol and 23830.4 cal/mol and 24001.8 cal/mol
same,Tm,[2]; 40% w/w CDHP in 0.1M NaOAc,86.27 °C and 86.39 °C and 86.37 °C
same,ΔH,[2]; 40% w/w CDHP in 0.1M NaOAc,140490 cal/mol and 149751 cal/mol and 139216 cal/mol
same,ΔS,[2]; 40% w/w CDHP in 0.1M NaOAc,390.9 cal/mol K and 416.5 cal/mol K and 307.2 cal/mol K
same,enzyme activity over time,[3],degrades faster
same,formulated protein contained in the pellet,[4],~90%
same,formulated protein found in the supernatant,[4],about 10%
same,decrease of thermal transition midpoint temperature at the higher concentration,[5],~5 °C
